Experimental findings from patent US20030032587A1, “Urocortin peptides” (The Salk Institute for Biological Studies, priority 1995, published 2003) are described below.

In one assay the test system is rats. Put plainly: ACTH secretion in vivo, ACTH level in plasma. The settings on record: 5 μg/kg dose, at 30 minutes.
In assay [1] the test system is mammalian mean arterial blood pressure. The assay is described as follows: in vivo test measuring elevation of mean arterial blood pressure as a result of iv injection. Particulars: result in words; indicative of a Ucn antagonist. The source says: The peptide, Ucn(11-40), having the amino acid sequence (see SEQ ID NO: 8): […] is synthesized in the manner described in Example I. To evaluate the biological activity of a candidate peptide as a Ucn antagonist (which will be indicative of its effective binding to CRF receptors), the previously mentioned assay from Endocrinology, 91, supra, is run in the presence of a challenge dose of ovine CRF. […] An in vivo test measuring elevation of mean arterial blood pressure as a result of iv injection is also simply and straightforwardly performed.

The subject of assay [2] is rat anterior pituitary cells. The assay is described as follows: ACTH secretion by anterior pituitary cell cultures in the presence of a challenge dose of ovine CRF (antagonist test). The format is cell-based. Particulars: challenge dose of ovine CRF; relative to [D-Phe12,Nle21,38]-r/hCRF(12-41). The source says: A straightforward assay using rat anterior pituitary cells in monolayer culture can be carried out to determine whether a candidate peptide thereof will function as a CRF agonist and stimulate ACTH secretion by activating CRF receptors on such cells. The procedure which is used is that generally set forth in Endocrinology, 91, supra. A very similar assay is used to test for antagonistic properties, using a challenge dose of oCRF or the like.
An in vivo test measuring elevation of mean arterial blood pressure as a result of iv injection is also simply and straightforwardly performed.

The target of assay [3] is T1, human CRF binding protein (human, UniProt P24387 25-322).
T1 construct: also called hCRF-BP; CRF-BP
T1 sequence (looked up): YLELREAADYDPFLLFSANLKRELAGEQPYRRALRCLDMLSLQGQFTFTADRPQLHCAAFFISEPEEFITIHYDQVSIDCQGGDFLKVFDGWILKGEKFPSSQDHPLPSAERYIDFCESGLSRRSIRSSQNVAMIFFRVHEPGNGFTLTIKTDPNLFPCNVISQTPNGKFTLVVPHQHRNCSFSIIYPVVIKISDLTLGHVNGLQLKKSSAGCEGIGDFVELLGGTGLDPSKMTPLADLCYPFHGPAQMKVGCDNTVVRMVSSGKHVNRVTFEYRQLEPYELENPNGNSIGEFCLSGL
The assay is described as follows: competitive hCRF-BP ligand binding assay with [125I-DTyr0]hCRF. As to the method:
After incubating with the primary and secondary antisera for 30 minutes each, 1 ml of saline wash is added, and the test tubes are centrifuged at 2000× g for 20 minutes at 4° C. Precipitates are counted in a gamma counter. Inhibitory binding affinity constant (Kᵢ) values are determined using parameters calculated by the LIGAND computer program, Munson et al., Anal. Biochem., 107, 220 (1980), and a Vax/VMS computer system.

Assay [4] addresses CRF receptors on anterior pituitary cells in culture. The assay is described as follows: cell-based or functional assay.

Bridges are numbered along the chain shown (N, C = ends). Where no end group is shown, it is not given here. [ ]: non-standard residue; d: D form.

As for `CC[C@H](C)[C@H](NC(=O)[C@@H](NC(=O)[C@H](CCC(=O)O)NC(=O)[C@H](CCSC)NC(=O)[C@H](CC(C)C)NC(=O)[C@H](CCCCN)NC(=O)[C@H](CCCNC(=N)N)NC(=O)[C@H](CC(N)=O)NC(=O)[C@H](CO)NC(=O)[C@H](Cc1c[nH]cn1)NC(=O)[C@H](C)NC(=O)[C@H](CCC(N)=O)NC(=O)[C@H](CCC(N)=O)NC(=O)[C@H](C)NC(=O)[C@H](CC(C)C)NC(=O)[C@H](CCC(N)=O)NC(=O)[C@H](CCC(=O)O)NC(=O)[C@H](C)NC(=O)[C@H](CCCNC(=N)N)NC(=O)[C@H](C)NC(=O)[C@H](CCSC)NC(=O)[C@H](CCC(=O)O)NC(=O)[C@H](CC(C)C)NC(=O)[C@@H](NC(=O)[C@H](CCC(=O)O)NC(=O)[C@H](CCCNC(=N)N)NC(=O)[C@H](CC(C)C)NC(=O)[C@H](CC(C)C)NC(=O)[C@H](Cc1c[nH]cn1)NC(=O)[C@H](Cc1ccccc1)NC(=O)[C@@H](NC(=O)[C@H](CC(C)C)NC(=O)[C@H](CC(=O)O)NC(=O)[C@H](CC(C)C)NC(=O)[C@H](CO)NC(=O)[C@@H](NC(=O)[C@@H]1CCCN1C(=O)[C@@H]1CCCN1C(=O)[C@H](CCC(=O)O)NC(=O)[C@H](CCC(=O)O)NC(=O)[C@@H](N)CO)[C@@H](C)CC)[C@@H](C)O)C(C)C)[C@@H](C)CC)C(N)=O` [r/hCRF, reference compound], the “ACTH level in plasma” value in the assay on rats turned out to be 422 ± 66 pg/mL.

For “H-D-Tyr-His-Leu-Leu-Arg-Thr-Leu-Leu-Glu-Leu-Ala-Arg-Thr-Gln-Ser-Gln-Arg-Glu-Glu-Ala-Glu-Lys-Asn-Arg-Ile-Ile-Phe-Asp-Ser-Val-NH2 (H-[dY]HLLRTLLELARTQSQREEAEKNRIIFDSV-NH2; lactam 19-22; SMILES CC[C@H](C)[C@H](NC(=O)[C@H](CCCNC(=N)N)NC(=O)[C@H](CC(N)=O)NC(=O)[C@@H]1CCCCNC(=O)CC[C@H](NC(=O)[C@H](CCC(=O)O)NC(=O)[C@H](CCCNC(=N)N)NC(=O)[C@H](CCC(N)=O)NC(=O)[C@H](CO)NC(=O)[C@H](CCC(N)=O)NC(=O)[C@@H](NC(=O)[C@H](CCCNC(=N)N)NC(=O)[C@H](C)NC(=O)[C@H](CC(C)C)NC(=O)[C@H](CCC(=O)O)NC(=O)[C@H](CC(C)C)NC(=O)[C@H](CC(C)C)NC(=O)[C@@H](NC(=O)[C@H](CCCNC(=N)N)NC(=O)[C@H](CC(C)C)NC(=O)[C@H](CC(C)C)NC(=O)[C@H](Cc2c[nH]cn2)NC(=O)[C@H](N)Cc2ccc(O)cc2)[C@@H](C)O)[C@@H](C)O)C(=O)N[C@@H](C)C(=O)N[C@@H](CCC(=O)O)C(=O)N1)C(=O)N[C@H](C(=O)N[C@@H](Cc1ccccc1)C(=O)N[C@@H](CC(=O)O)C(=O)N[C@@H](CO)C(=O)N[C@H](C(N)=O)C(C)C)[C@@H](C)CC)”, in assay [1], the “vasoconstrictive activity causing elevation of mean arterial blood pressure” value was “significant mammalian vasoconstrictive activity”. Further, the “inhibition of ACTH secretion in vitro, times as effective as the Standard Antagonist (confidence limits)” value in assay [2] was 4.01 (2.32-7.05).

On to “H-Pro-D-Phe-His-Leu-Leu-Arg-Thr-Leu-Leu-Glu-Leu-Ala-Arg-Thr-Gln-Ser-Gln-Arg-Glu-Glu-Ala-D-Glu-Lys-Asn-Arg-Ile-Ile-Phe-Asp-Ser-Val-NH2 (H-P[dF]HLLRTLLELARTQSQREEA[dE]KNRIIFDSV-NH2; lactam 20-23; SMILES CC[C@H](C)[C@H](NC(=O)[C@H](CCCNC(=N)N)NC(=O)[C@H](CC(N)=O)NC(=O)[C@@H]1CCCCNC(=O)CC[C@H](NC(=O)[C@H](CCC(=O)O)NC(=O)[C@H](CCCNC(=N)N)NC(=O)[C@H](CCC(N)=O)NC(=O)[C@H](CO)NC(=O)[C@H](CCC(N)=O)NC(=O)[C@@H](NC(=O)[C@H](CCCNC(=N)N)NC(=O)[C@H](C)NC(=O)[C@H](CC(C)C)NC(=O)[C@H](CCC(=O)O)NC(=O)[C@H](CC(C)C)NC(=O)[C@H](CC(C)C)NC(=O)[C@@H](NC(=O)[C@H](CCCNC(=N)N)NC(=O)[C@H](CC(C)C)NC(=O)[C@H](CC(C)C)NC(=O)[C@H](Cc2c[nH]cn2)NC(=O)[C@@H](Cc2ccccc2)NC(=O)[C@@H]2CCCN2)[C@@H](C)O)[C@@H](C)O)C(=O)N[C@@H](C)C(=O)N[C@H](CCC(=O)O)C(=O)N1)C(=O)N[C@H](C(=O)N[C@@H](Cc1ccccc1)C(=O)N[C@@H](CC(=O)O)C(=O)N[C@@H](CO)C(=O)N[C@H](C(N)=O)C(C)C)[C@@H](C)CC)”, for which the “vasoconstrictive activity causing elevation of mean arterial blood pressure” value in assay [1] is recorded as “significant mammalian vasoconstrictive activity”. In assay [2], the “inhibition of ACTH secretion in vitro, times as effective as the Standard Antagonist (confidence limits)” value was 2.74 (1.02-8.02).

Take LSIDLTFHLLRTLLELARTQSQRERAEQ (Printed without NH2 at the C-terminus) [Ucn(5-32)]: the binding result in assay [3] is given as “binds”.

For PPLSIDLTFHLLRTLLELARTQSQR (Printed without NH2) [Ucn(3-27)], the binding result in assay [3] was “binds”.

Take SIDLTFHLLRTLIELARTQSQRER (Printed without NH2 at the C-terminus) [[Ile18]-Ucn(6-29)]: the binding result in assay [3] was “binds”.

B1: [D-Phe11]-Ucn(11-40) (peptide)
peptide: [dF]HLLRTLLELARTQSQRERAEQNRIIFDSV-NH2
modifications: N-terminus assumed
SMILES: CC[C@H](C)[C@H](NC(=O)[C@H](CCCNC(=N)N)NC(=O)[C@H](CC(N)=O)NC(=O)[C@H](CCC(N)=O)NC(=O)[C@H](CCC(=O)O)NC(=O)[C@H](C)NC(=O)[C@H](CCCNC(=N)N)NC(=O)[C@H](CCC(=O)O)NC(=O)[C@H](CCCNC(=N)N)NC(=O)[C@H](CCC(N)=O)NC(=O)[C@H](CO)NC(=O)[C@H](CCC(N)=O)NC(=O)[C@@H](NC(=O)[C@H](CCCNC(=N)N)NC(=O)[C@H](C)NC(=O)[C@H](CC(C)C)NC(=O)[C@H](CCC(=O)O)NC(=O)[C@H](CC(C)C)NC(=O)[C@H](CC(C)C)NC(=O)[C@@H](NC(=O)[C@H](CCCNC(=N)N)NC(=O)[C@H](CC(C)C)NC(=O)[C@H](CC(C)C)NC(=O)[C@H](Cc1c[nH]cn1)NC(=O)[C@H](N)Cc1ccccc1)[C@@H](C)O)[C@@H](C)O)C(=O)N[C@H](C(=O)N[C@@H](Cc1ccccc1)C(=O)N[C@@H](CC(=O)O)C(=O)N[C@@H](CO)C(=O)N[C@H](C(N)=O)C(C)C)[C@@H](C)CC
In turn, B1 yielded an antagonism of ACTH secretion under a challenge dose of ovine CRF, potency relative to the Standard Antagonist [D-Phe12, Nle21,38]-r/hCRF(12-41) (times Standard Antagonist) in assay [4] of 0.551.

Consider DDPPLSIDLTFHLLRTLLELARTQSQRERAEQNRIIFDSV-NH2 [rat urocortin (rat Ucn)], for which the EC50, secretion of ACTH in cultured rodent pituitary cells in assay [4] turned out to be 6 pM.

On to DLTFHLLRTLLELARTQSQRERAEQ (Printed without NH2 at the C-terminus) [Ucn(8-32)], for which the binding result in assay [3] is listed as “binds”.

In turn, DNPSLSIDLTFHLLRTLLELARTQSQRERAEQNRIIFDSV-NH2 [Human Ucn(1-40)] gave an ACTH secretion, anterior pituitary cell cultures, potency relative to r/hCRF in assay [4] of 3.1 times r/hCRF.
